Measured values: patent US20160024487

What was measured:
[1] = target: T1, Lys(Dnp)-ATNATLMPRIVGG-Lys(Abz)
T1 chain: KATNATLMPRIVGGK

[2] = target: T2, Lys(Dnp)-ATNATRPPRIVGG-Lys(Abz)
T2 chain: KATNATRPPRIVGGK

[3] = target: T3, Lys(Dnp)-ATNATFRPRIVGG-Lys(Abz)
T3 chain: KATNATFRPRIVGGK

[4] = target: T4, Lys(Dnp)-ATNATITPRIVGG-Lys(Abz)
T4 chain: KATNATITPRIVGGK

[5] = target: T5, Lys(Dnp)-ATNATFKPRIVGG-Lys(Abz)
T5 chain: KATNATFKPRIVGGK

[6] = target: T6, Lys(Dnp)-ATNATVKPRIVGG-Lys(Abz)
T6 chain: KATNATVKPRIVGGK

[7] = target: T7, Lys(Dnp)-ATNATLTPRIVGG-Lys(Abz)
T7 chain: KATNATLTPRIVGGK

[8] = target: T8, Lys(Dnp)-ATNATVMPRIVGG-Lys(Abz)
T8 chain: KATNATVMPRIVGGK

[9] = target: T9, Lys(Dnp)-ATNATAKPRIVGG-Lys(Abz)
T9 chain: KATNATAKPRIVGGK

[10] = target: T10, Lys(Dnp)-ATNATMQPRIVGG-Lys(Abz)
T10 chain: KATNATMQPRIVGGK

[11] = target: T11, Lys(Dnp)-ATNATYTPRIVGG-Lys(Abz)
T11 chain: KATNATYTPRIVGGK

[12] = target: T12, Lys(Dnp)-ATNATFWPRIVGG-Lys(Abz)
T12 chain: KATNATFWPRIVGGK

[13] = target: T13, Lys(Dnp)-ATNATMVPRIVGG-Lys(Abz)
T13 chain: KATNATMVPRIVGGK

[14] = target: T14, Lys(Dnp)-ATNATQDPRIVGG-Lys(Abz)
T14 chain: KATNATQDPRIVGGK

[15] = target: T15, Lys(Dnp)-ATNATYYPRIVGG-Lys(Abz)
T15 chain: KATNATYYPRIVGGK

[16] = target: T16, Lys(Dnp)-ATNATRVPRIVGG-Lys(Abz)
T16 chain: KATNATRVPRIVGGK

[17] = target: T17, Lys(Dnp)-ATNATMLPRIVGG-Lys(Abz)
T17 chain: KATNATMLPRIVGGK

[18] = target: T18, Lys(Dnp)-ATNATESPRIVGG-Lys(Abz)
T18 chain: KATNATESPRIVGGK

[19] = target: T19, Lys(Dnp)-ATNATYFPRIVGG-Lys(Abz)
T19 chain: KATNATYFPRIVGGK

[20] = target: T20, Lys(Dnp)-ATNATREPRIVGG-Lys(Abz)
T20 chain: KATNATREPRIVGGK

[21] = target: T21, Lys(Dnp)-ATNATRWPRIVGG-Lys(Abz)
T21 chain: KATNATRWPRIVGGK

[22] = target: T22, Lys(Dnp)-ATNATMWPRIVGG-Lys(Abz)
T22 chain: KATNATMWPRIVGGK

[23] = target: T23, Lys(Dnp)-ATNATWDPRIVGG-Lys(Abz)
T23 chain: KATNATWDPRIVGGK

[24] = target: T24, Lys(Dnp)-ATNATRMPRIVGG-Lys(Abz)
T24 chain: KATNATRMPRIVGGK

[25] = target: T25, Lys(Dnp)-ATNATYPPRIVGG-Lys(Abz)
T25 chain: KATNATYPPRIVGGK

[26] = target: T26, Lys(Dnp)-ATNATMSPRIVGG-Lys(Abz)
T26 chain: KATNATMSPRIVGGK

[27] = target: T27, Lys(Dnp)-ATNATDLPRIVGG-Lys(Abz)
T27 chain: KATNATDLPRIVGGK

[28] = target: T28, Lys(Dnp)-ATNATMDPRIVGG-Lys(Abz)
T28 chain: KATNATMDPRIVGGK

[29] = target: T29, Lys(Dnp)-ATNATWFPRIVGG-Lys(Abz)
T29 chain: KATNATWFPRIVGGK

[30] = target: T30, Lys(Dnp)-ATNATTWPRIVGG-Lys(Abz)
T30 chain: KATNATTWPRIVGGK

[31] = target: T31, Lys(Dnp)-ATNATKNPRIVGG-Lys(Abz)
T31 chain: KATNATKNPRIVGGK

[32] = target: T32, Lys(Dnp)-ATNATGEPRIVGG-Lys(Abz)
T32 chain: KATNATGEPRIVGGK

[33] = target: T33, Lys(Dnp)-ATNATPSPRIVGG-Lys(Abz)
T33 chain: KATNATPSPRIVGGK

[34] = target: T34, Lys(Dnp)-ATNATKYPRIVGG-Lys(Abz)
T34 chain: KATNATKYPRIVGGK

[35] = target: T35, Lys(Dnp)-ATNATHVPRIVGG-Lys(Abz)
T35 chain: KATNATHVPRIVGGK

[36] = target: T36, Lys(Dnp)-ATNATPGPRIVGG-Lys(Abz)
T36 chain: KATNATPGPRIVGGK

[37] = target: T37, Lys(Dnp)-ATNATNRPRIVGG-Lys(Abz)
T37 chain: KATNATNRPRIVGGK

[38] = target: T38, Lys(Dnp)-ATNATYMPRIVGG-Lys(Abz)
T38 chain: KATNATYMPRIVGGK

[39] = target: T39, Lys(Dnp)-ATNATSNPRIVGG-Lys(Abz)
T39 chain: KATNATSNPRIVGGK

[40] = target: T40, Lys(Dnp)-ATNATKVPRIVGG-Lys(Abz)
T40 chain: KATNATKVPRIVGGK

[41] = target: T41, Lys(Dnp)-ATNATDHPRIVGG-Lys(Abz)
T41 chain: KATNATDHPRIVGGK

B1: Human plasma purified Factor Xa (protein)
chain 1: ANSFLEEMKKGHLERECMEETCSYEEAREVFEDSDKTNEFWNKYKDGDQCETSPCQNQGKCKDGLGEYTCTCLEGFEGKNCELFTRKLCSLDNGDCDQFCHEEQNSVVCSCARGYTLADNGKACIPTGPYPCGKQTLER
chain 2: IVGGQECKDGECPWQALLINEENEGFCGGTILSEFYILTAAHCLYQAKRFKVRVGDRNTEQEEGGEAVHEVEVVIKHNRFTKETYDFDIAVLRLKTPITFRMNVAPACLPERDWAESTLMTQKTGIVSGFGRTHEKGRQSTRLKMLEVPYVDRNSCKLSSSFIITQNMFCAGYDTKQEDACQGDSGGPHVTRFKDTYFVTGIVSWGEGCARKGKYGIYTKVTAFLKWIDRSMKTRGLPKAKSHAPEVITSSPLK
- FXa kcat/KM [1]: 2700 M⁻¹ s⁻¹
- FXa kcat/KM [2]: 7 M⁻¹ s⁻¹
- FXa kcat/KM [3]: 430 M⁻¹ s⁻¹
- FXa kcat/KM [4]: 840 M⁻¹ s⁻¹
- FXa kcat/KM [5]: 55 M⁻¹ s⁻¹
- FXa kcat/KM [6]: 38 M⁻¹ s⁻¹
- FXa kcat/KM [7]: 540 M⁻¹ s⁻¹
- FXa kcat/KM [8]: 280 M⁻¹ s⁻¹
- FXa kcat/KM [9]: 30 M⁻¹ s⁻¹
- FXa kcat/KM [10]: 950 M⁻¹ s⁻¹
- FXa kcat/KM [11]: 29 M⁻¹ s⁻¹
- FXa kcat/KM [12]: 370 M⁻¹ s⁻¹
- FXa kcat/KM [13]: 100 M⁻¹ s⁻¹

B2: Human plasma purified Factor Xa (Molecular Innovations, Inc) (protein)
chain 1: B1 chain 1
chain 2: B1 chain 2
- FXa kcat/KM [14]: 680 M⁻¹ s⁻¹
- FXa kcat/KM [15]: 48 M⁻¹ s⁻¹
- FXa kcat/KM [16]: 510 M⁻¹ s⁻¹
- FXa kcat/KM [17]: 530 M⁻¹ s⁻¹
- FXa kcat/KM [18]: 5.3 M⁻¹ s⁻¹
- FXa kcat/KM [19]: 34 M⁻¹ s⁻¹
- FXa kcat/KM [20]: 2400 M⁻¹ s⁻¹
- FXa kcat/KM [21]: 3000 M⁻¹ s⁻¹
- FXa kcat/KM [22]: 630 M⁻¹ s⁻¹
- FXa kcat/KM [23]: 16 M⁻¹ s⁻¹
- FXa kcat/KM [24]: 4600 M⁻¹ s⁻¹
- FXa kcat/KM [25]: 20 M⁻¹ s⁻¹
- FXa kcat/KM [26]: 570 M⁻¹ s⁻¹
- FXa kcat/KM [27]: 27 M⁻¹ s⁻¹
- FXa kcat/KM [28]: 500 M⁻¹ s⁻¹
- FXa kcat/KM [29]: 49 M⁻¹ s⁻¹
- FXa kcat/KM [30]: 21 M⁻¹ s⁻¹
- FXa kcat/KM [31]: 64 M⁻¹ s⁻¹
- FXa kcat/KM [32]: 87 M⁻¹ s⁻¹
- FXa kcat/KM [33]: 420 M⁻¹ s⁻¹
- FXa kcat/KM [34]: 38 M⁻¹ s⁻¹
- FXa kcat/KM [35]: 39 M⁻¹ s⁻¹
- FXa kcat/KM [36]: 100 M⁻¹ s⁻¹
- FXa kcat/KM [37]: 220 M⁻¹ s⁻¹
- FXa kcat/KM [38]: 160 M⁻¹ s⁻¹
- FXa kcat/KM [39]: 24 M⁻¹ s⁻¹
- FXa kcat/KM [40]: 50 M⁻¹ s⁻¹
- FXa kcat/KM [41]: 5 M⁻¹ s⁻¹
